Measurements published in article PMC11643816, “Determination of Lactoferrin Using High-Frequency Piezoelectric Quartz Aptamer Biosensor Based on Molecular Bond Rupture”.

How the values were obtained:
alpha-lactalbumin = biological target: T1, alpha-lactalbumin (UniProt P00711); assay: QCM bond rupture sandwich; settings: 100 ng/mL; sandwich with aptamer II beads; 5'-SH-(CH2)6; 30 °C, 70 min per binding step; aptamer I 3 μmol/L on gold with MCH block; aptamer II beads stored in 10 mmol/L PBS; binding buffer, salt and pH not stated
T1 sequence: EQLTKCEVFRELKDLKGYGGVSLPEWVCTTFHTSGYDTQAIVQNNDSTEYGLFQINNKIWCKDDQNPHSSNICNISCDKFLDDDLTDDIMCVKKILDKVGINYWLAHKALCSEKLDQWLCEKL

lactoferrin (LF) [1] = biological target: T2, lactoferrin (LF) (UniProt P24627 20-708); assay: QCM bond rupture sandwich; cyclic voltammetry; aptamer II on magnetic beads, LF captured by aptamer I; 1180 Hz shift at 100 ng/mL LF; 30 °C, 70 min per binding step; aptamer I 3 μmol/L on gold with MCH block; aptamer II beads stored in 10 mmol/L PBS; binding buffer, salt and pH not stated; settings: protein: commercial
T2 sequence (P24627 20-708): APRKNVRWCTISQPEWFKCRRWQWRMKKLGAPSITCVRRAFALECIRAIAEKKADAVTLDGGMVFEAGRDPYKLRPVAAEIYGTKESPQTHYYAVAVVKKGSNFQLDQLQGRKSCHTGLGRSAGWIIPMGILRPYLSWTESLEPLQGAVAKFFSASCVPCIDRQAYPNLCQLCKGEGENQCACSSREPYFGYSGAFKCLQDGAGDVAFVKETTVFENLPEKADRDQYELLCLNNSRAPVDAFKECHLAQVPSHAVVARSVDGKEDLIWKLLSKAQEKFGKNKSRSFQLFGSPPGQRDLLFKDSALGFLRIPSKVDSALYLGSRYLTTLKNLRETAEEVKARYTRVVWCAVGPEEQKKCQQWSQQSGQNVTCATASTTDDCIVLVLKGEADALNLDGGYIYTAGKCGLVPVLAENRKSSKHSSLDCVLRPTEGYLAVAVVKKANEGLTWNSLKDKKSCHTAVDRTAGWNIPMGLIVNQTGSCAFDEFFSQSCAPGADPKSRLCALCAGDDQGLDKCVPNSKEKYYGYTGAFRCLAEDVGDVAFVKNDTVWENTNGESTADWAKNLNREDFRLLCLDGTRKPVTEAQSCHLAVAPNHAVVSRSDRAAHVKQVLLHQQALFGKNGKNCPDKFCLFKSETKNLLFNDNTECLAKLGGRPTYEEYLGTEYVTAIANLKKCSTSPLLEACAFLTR

lactoferrin (LF) [2] = biological target: T2, lactoferrin (LF); assay: QCM bond rupture sandwich; cyclic voltammetry; aptamer I on gold, 100 ng/mL LF; 30 °C, 70 min per binding step; aptamer I 3 μmol/L on gold with MCH block; aptamer II beads stored in 10 mmol/L PBS; binding buffer, salt and pH not stated; settings: protein: commercial

TGGTGCTGCCCCTAGTCTCCGGCTGCTTCTTGG [aptamer I]
binding signal (% of LF signal) (alpha-lactalbumin): 8.39

B1: aptamer II (ssDNA)
DNA: AGGCAGGACACCGTAACCGGTGCATCTATGGCTACTAGCTTTTCCTGCCT
modifications: 5'-SH-(CH2)6 as printed
binding result (lactoferrin (LF) [1]): binds

B2: aptamer I (ssDNA)
DNA: TGGTGCTGCCCCTAGTCTCCGGCTGCTTCTTGG
modifications: 5'-SH-(CH2)6
binding result (lactoferrin (LF) [2]): binds
